Measurements as given in article doi:10.1101/2021.07.22.453368.

Experiments:
[1] = molecular target: human Nogo 66 receptor 1 (human) (UniProt Q9BZR6); test: flow cytometry on cells
[2] = molecular target: junctional adhesion molecule-A (human) (UniProt Q9Y624); test: flow cytometry on cells
UniProt Q9Y624, sequence (Q9Y624 28-299): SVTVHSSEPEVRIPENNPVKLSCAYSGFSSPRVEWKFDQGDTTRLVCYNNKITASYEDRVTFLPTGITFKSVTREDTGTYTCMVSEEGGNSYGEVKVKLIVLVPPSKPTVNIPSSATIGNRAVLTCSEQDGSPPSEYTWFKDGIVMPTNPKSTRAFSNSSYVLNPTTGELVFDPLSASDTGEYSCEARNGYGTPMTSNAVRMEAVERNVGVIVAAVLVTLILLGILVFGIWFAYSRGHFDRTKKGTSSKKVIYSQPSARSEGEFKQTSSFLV

UniProt Q9BZR6, sequence (Q9BZR6 27-447): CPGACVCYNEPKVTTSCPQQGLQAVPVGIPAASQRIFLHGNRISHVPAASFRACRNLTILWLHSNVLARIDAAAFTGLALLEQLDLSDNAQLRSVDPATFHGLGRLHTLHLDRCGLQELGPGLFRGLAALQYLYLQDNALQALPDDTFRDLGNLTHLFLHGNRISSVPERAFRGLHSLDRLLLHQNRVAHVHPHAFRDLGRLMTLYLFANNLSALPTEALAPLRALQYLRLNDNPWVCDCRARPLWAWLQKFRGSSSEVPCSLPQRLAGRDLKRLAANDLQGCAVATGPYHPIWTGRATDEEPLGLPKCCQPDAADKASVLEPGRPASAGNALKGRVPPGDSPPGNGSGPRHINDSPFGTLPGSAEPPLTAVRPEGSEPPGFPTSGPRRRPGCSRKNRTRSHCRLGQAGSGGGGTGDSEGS

Substance: reovirus T3SA- virions (complex)
- percent of receptor-expressing cells bound by reovirus [1]: > 50%
- percent of receptor-expressing cells bound by reovirus [2]: > 50%
